Target: T1, P1 adhesin ectodomain (residues Thr29-Asp1521), Mycoplasma pneumoniae (M. pneumoniae, UniProt P11311)
T1 construct: Adhesin P1 of Mycoplasma pneumoniae, gene MPN_141 (synthetic clone, Genscript), residues 29-1521; also called P1 (29-1521); whole P1 ectodomain; source: E. coli B834 (DE3), purified (HisTrap, Superdex 200)
Experiment: SEC-MALS; proteins mixed in solution (Fab and P1 ectodomain in equimolecular amounts; Mab with C-domain constructs); Superdex 200 10/300 GL with MALS and refractive index detectors
Conditions: both partners purified

T1 sequence (P11311 29-1521): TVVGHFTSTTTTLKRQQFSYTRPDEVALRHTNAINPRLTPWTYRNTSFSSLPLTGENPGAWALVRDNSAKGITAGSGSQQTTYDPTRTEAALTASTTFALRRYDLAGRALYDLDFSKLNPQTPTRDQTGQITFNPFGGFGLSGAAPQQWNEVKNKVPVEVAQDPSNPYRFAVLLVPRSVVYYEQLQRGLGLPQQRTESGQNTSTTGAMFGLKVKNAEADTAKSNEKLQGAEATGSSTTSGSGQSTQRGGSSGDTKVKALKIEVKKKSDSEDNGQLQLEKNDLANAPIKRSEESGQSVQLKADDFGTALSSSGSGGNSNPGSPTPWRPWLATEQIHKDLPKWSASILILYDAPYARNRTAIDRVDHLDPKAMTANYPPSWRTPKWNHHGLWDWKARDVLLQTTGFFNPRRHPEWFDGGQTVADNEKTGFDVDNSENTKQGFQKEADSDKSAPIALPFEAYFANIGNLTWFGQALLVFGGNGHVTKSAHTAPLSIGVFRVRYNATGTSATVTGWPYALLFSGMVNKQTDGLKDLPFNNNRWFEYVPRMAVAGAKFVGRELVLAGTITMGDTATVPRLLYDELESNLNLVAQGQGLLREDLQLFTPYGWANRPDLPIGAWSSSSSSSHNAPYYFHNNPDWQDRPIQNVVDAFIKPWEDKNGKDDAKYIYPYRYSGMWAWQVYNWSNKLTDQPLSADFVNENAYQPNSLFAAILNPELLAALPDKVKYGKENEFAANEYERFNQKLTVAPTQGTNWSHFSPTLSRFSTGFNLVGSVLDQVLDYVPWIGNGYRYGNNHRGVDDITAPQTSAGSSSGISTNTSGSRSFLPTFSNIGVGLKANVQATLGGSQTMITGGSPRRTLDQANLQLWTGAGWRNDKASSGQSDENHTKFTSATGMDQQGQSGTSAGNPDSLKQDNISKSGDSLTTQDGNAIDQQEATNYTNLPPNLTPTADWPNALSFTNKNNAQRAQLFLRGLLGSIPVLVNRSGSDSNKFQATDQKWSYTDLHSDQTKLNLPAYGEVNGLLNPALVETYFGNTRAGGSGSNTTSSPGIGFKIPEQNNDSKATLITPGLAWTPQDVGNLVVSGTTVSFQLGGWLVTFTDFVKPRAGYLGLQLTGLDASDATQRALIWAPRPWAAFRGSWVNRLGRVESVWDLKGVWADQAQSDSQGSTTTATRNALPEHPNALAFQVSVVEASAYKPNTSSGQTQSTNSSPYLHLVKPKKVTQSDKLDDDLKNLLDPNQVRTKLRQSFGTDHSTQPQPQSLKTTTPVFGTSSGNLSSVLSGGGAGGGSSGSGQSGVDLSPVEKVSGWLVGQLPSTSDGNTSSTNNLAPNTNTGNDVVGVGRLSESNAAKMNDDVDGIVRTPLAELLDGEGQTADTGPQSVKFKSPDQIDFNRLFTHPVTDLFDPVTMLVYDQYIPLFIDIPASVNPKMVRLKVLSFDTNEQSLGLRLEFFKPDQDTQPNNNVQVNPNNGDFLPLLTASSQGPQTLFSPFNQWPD

B1: Fab fragment of monoclonal antibody P1/MCA4, with light chain L1 (Fab, V domains shown)
VH: EVQLQQSGPELVKPGTSMKISCKASGYSFTGYTMNWVKQSHGKSLEWIGLINPYNGGTNYNQKFRGTATLTVDKSSSTAYMELLSLTSEDSAVYYCARSNYAYDLLMDYWGQGTSVTVSS
VL: DVLMTQTPLSLPVSLGDQASISCRFSQTIVHSNGATYLEWYLQRPGQSPKLLIYKVSNRFSGVPDRFSGSGSGTDFTLKISRVEAEDLGVYYCFQGSHVPWTFGGGTKLEIK
notes: LC600310 by the order of listing; here the papain fragment of the heavy chain; modelled in PDB 8ROR; light chain L1, the one seen in the cryo-EM map; The Fab preparation is a mixture of two Fabs with one heavy chain and two different light chains (roughly 70% for the most abundant); this molecule is the one with L1; also called Fab(P1/MCA4); P1/MCA4 Fab; source: papain digestion of monoclonal …
Q: Does B1 bind?
A: binds

B2: Fab fragment of monoclonal antibody P1/MCA4, with the second light chain (not L1) (Fab, V domains shown)
VH: EVQLQQSGPELVKPGTSMKISCKASGYSFTGYTMNWVKQSHGKSLEWIGLINPYNGGTNYNQKFRGTATLTVDKSSSTAYMELLSLTSEDSAVYYCARSNYAYDLLMDYWGQGTSVTVSS
VL: DVVMTQTPLTLSVTIGQPASISCKSSQSLLDSDGKTYLNCFLQRPGQSPNRLIYLVSRLDSGVPDRFTGSGSGTDFTLKISRVEAEDLGVYYCCQVTQWTFGGGTKLEIK
notes: LC600310 by the order of listing; papain fragment; the second of the two light chains found in P1/MCA4 (not L1); Present in the same Fab preparation as m1; also called Fab(P1/MCA4); P1/MCA4 Fab; source: papain digestion of monoclonal antibody P1/MCA4 (hybridoma), purified (HiTrap Protein G, Superdex 75)
Q: Does B2 bind?
A: binds

— publication PMC11984735, “Dynamics of the adhesion complex of the human pathogens Mycoplasma pneumoniae and Mycoplasma genitalium” (PLOS Pathogens, 2025)
